These results are taken from patent US20250101137A1 (TRUSTEES OF TUFTS COLLEGE, published 2025).

In assay [1] the target is Botulinum neurotoxin serotype B (BoNT/B) holotoxin (Clostridium botulinum, UniProt P10844). Briefly: SPR; immobilised form of BoNT/B not stated. For orientation: Surface plasmon resonance follows binding to a sensor surface in real time, without labels.
Assay [2] deals with Botulinum neurotoxin serotype A1 (BoNT/A) holotoxin (Clostridium botulinum, UniProt P0DPI0). Briefly: method not stated.

One may read the Kd as a measure of binding affinity in units of concentration.

B1: ciB-H11 (VHH)
VHH: QVQLVETGGGLVQAGGSLRLSCAGSGRSFSAAVMGWFRQAPGKEREFVAALRQIIGSTHYADSVKGRFTISRDNAKNMLYLDMNSLKPTDTAAYYCTAGPPTMLDVSTDREYDTWGQGTQVTVSS
B1 had a Kd in assay [1] of 0.26 nM.

B2: ciB-B9 (VHH)
VHH: TGGGLVQAGGSLRLSCTASGRTSSFYALAWFRQGPGKEREFVAAIGWIDGSTRYTDSAKGRFTISRDAAKNTMYLQMNSLKPEDTAVYSCTARTQYGGSSADPKNYGYWGQGTQVTVSA
B2 showed a Kd in assay [1] of 23 nM.

B3: scFv #7 (scFv)
scFv: SYELTQPPSMSVALGQTAKVTCQGDNLENFYVQWHQQKPGQAPVTVIFQDNKRPSGIPDRFSGSNSGNTATLTISGARTEDEADYYCQSGHSSIGGVFGSGTSLTVLGQPAAAGGGGSGGGGSGGGGSARQVQLQESGPSLVKPSQTLSLTCTVSGFSLTGNSVTWVRQAPGNVPEWLGGISRGGRTYYDTALKSRLSITRDTSKRQVSLSLSSVTTEDTAMYFCARSAYSTLYDYEYAADIYDWGPGLLVTVSSTSGAPVPYPDPLEPRAA
Regarding B3, the Kd in assay [2] is ~1 nM.
